Several values for one entry are separate records, joined by “and”; a condition that tells them apart may be missing. Equal values may be shown once. Read-outs that look alike come from different tables or passages of the source. Blank lines part the entries; values can stand above or below the binder they belong to.
B2: S100A4 (natural protein)
chain: not shown
notes: S100A4; the NMR analysis speaks of residues 1-101; The His-tag is named only for the SPR experiment (two His-tags in the dimer); also called WT S100A4; u-S100A4; source: expressed and purified as described previously (Badyal et al., 2011)
B5: M200 fragment of nonmuscle myosin IIA heavy chain (Q1761-E1960) (domain or fragment, UniProt P35579 1761-1960, looked up)
chain: QINTDLNLERSHAQKNENARQQLERQNKELKVKLQEMEGTVKSKYKASITALEAKIAQLEEQLDNETKERQAACKQVRRTEKKLKDVLLQVDDERRNAEQYKDQADKASTRLKQLKRQLEEAEEEAQRANASRRKLQRELEDATETADAMNREVSSLKNKLRRGDLPFVVPRRMARKGAGDGSDEEVDGKADGAEAKPAE
notes: nonmuscle myosin IIA heavy chain, residues Q1761-E1960; forms a coiled coil and filaments; source: expressed and purified as described previously (Badyal et al., 2011)

Tests used:
[1] = biological target: the molecule itself; experiment: SEC-MALLS; Superdex 75 10/300, 20 mM MES pH 6.1, 150 mM NaCl, 0.5 mM DTT, 0.7 ml/min; 75 µM M70, 150 µM M111, 50 µM S100A4, 50 µM S100A4 V77D, 50 µM S100A4 C81D loaded
[2] = biological target: B5; experiment: competitive turbidity assay; 12.5 µM M200 diluted into 100 mM NaCl, 20 mM Hepes, 1 mM Mg2+, 100 µM Ca2+; turbidity at 300 nm; 25 µM S100A4 (monomer) added at 800 s, 10 µM M39 added at 1450 s; details: both partners purified
[3] = biological target: the molecule itself; experiment: SEC-MALLS; Superdex 75 10/300, 20 mM MES pH 6.1, 150 mM NaCl, 0.5 mM DTT, 0.7 ml/min; 75 µM M70, 150 µM M111, 50 µM S100A4, 50 µM S100A4 V77D, 50 µM S100A4 C81D loaded; remark: listed apart in the source
[4] = biological target: T1, S100A4, wild type, Ca^2+-bound dimer (recombinant) (UniProt P26447 1-101); experiment: SEC-MALS; SEC-MALLS with refractive index and absorbance detection; S100A4 and myosin fragment mixed (1:1 molar ratio for M111); details: both partners purified
T1 construct: also called WT; u-S100A4; source: recombinant, unlabeled and 13C,15N-labeled; purified

[5] = biological target: the molecule itself; experiment: competitive turbidity assay; 12.5 µM M200 diluted into 100 mM NaCl, 20 mM Hepes, 1 mM Mg2+, 100 µM Ca2+; turbidity at 300 nm; 25 µM S100A4 (monomer) added at 800 s, 10 µM M39 added at 1450 s
S100A4 [6] = biological target: B2; experiment: kinetic scheme (estimates or values required for thermodynamic balance); apo S100A4 dimer (no Ca2+ bound); values in blue in the scheme, not experimental measurements; details: both partners purified
S100A4 [7] = biological target: B2; experiment: kinetic scheme (estimates or values required for thermodynamic balance); S100A4 dimer with a single Ca2+ bound; values in blue in the scheme, not experimental measurements; details: both partners purified
S100A4 [8] = biological target: B2; experiment: competitive turbidity assay; 12.5 µM M200 diluted into 100 mM NaCl, 20 mM Hepes, 1 mM Mg2+, 100 µM Ca2+; turbidity at 300 nm; 25 µM S100A4 (monomer) added at 800 s, 10 µM M39 added at 1450 s; details: both partners purified
S100A4 [9] = biological target: B2; experiment: SPR; Biacore X100, S100A4 (0.5 µM) coupled by its His-tags to a Ni-NTA chip; M39 at 1, 3, 9 and 27 nM; 20 mM MES pH 6.1, 150 mM NaCl, 5 mM CaCl2, 0.5 mM TCEP, 50 µM EDTA, 0.005% Surfactant P20; fit to 1:1 Langmuir model; details: both partners purified
S100A4 [10] = biological target: B2; experiment: stopped-flow Quin-2 fluorescence (Ca2+ dissociation); M39 premixed with 13 µM S100A4 (monomer concentration) and 50 µM Ca2+, mixed with 100 µM Quin-2; 20 mM NaCl, 10 mM Hepes, 1 mM MgCl2, pH 7.5, 20 °C; amplitude of the fast phase against [M39]; mutants with up to 50 µM M39; details: both partners purified
[11] = biological target: T1, S100A4, wild type, Ca^2+-bound dimer …; experiment: kinetic assays; kinetic assays similar to those of Badyal et al., 2011 (Figures S1I–S1L); details: both partners purified
[12] = biological target: T1, S100A4, wild type, Ca^2+-bound dimer …; experiment: ITC + SPR + other: kinetic assays; limit that the paper gives as compatible with all its methods; details: both partners purified
[13] = biological target: T1, S100A4, wild type, Ca^2+-bound dimer …; experiment: SPR; sensorgrams at nanomolar concentrations of M39; simultaneous fit to a single site-binding model; n = 3; details: both partners purified
[14] = biological target: T2, S100A4 V77D mutant (studied in vitro) (UniProt P26447 1-101, V77D); experiment: NMR titration; S100A4 V77D and C81D mutants (Figures S3C and S3D); the myosin fragment is not given; details: both partners purified
T2 construct: Parent: m1

[15] = biological target: T3, S100A4 C81D mutant (studied in vitro) (UniProt P26447 1-101, C81D); experiment: as above; details: both partners purified
T3 construct: Parent: m1

[16] = biological target: T1, S100A4, wild type, Ca^2+-bound dimer …; experiment: ITC; 10 μM S100A4 in the cell, 75 μM M39 in the syringe; single site-binding model; the paper calls the KD an upper limit; details: both partners purified

B1: S100A4 C81D (natural protein)
chain: not shown
notes: source: expressed and purified as described previously (Badyal et al., 2011)
stoichiometry N [1]: 2

Binder: B2
binding result [2]: binds

B3: M70 fragment of nonmuscle myosin IIA heavy chain (residues A1868-G1938) (domain or fragment, UniProt P35579 1868-1938, looked up)
chain: ASTRLKQLKRQLEEAEEEAQRANASRRKLQRELEDATETADAMNREVSSLKNKLRRGDLPFVVPRRMARKG
notes: nonmuscle myosin IIA heavy chain, residues A1868-G1938; small print, not read surely; also called u-M70; 15N-M70; source: recombinant; expressed and purified as described previously (Badyal et al., 2011)
stoichiometry N [3]: 2

stoichiometry N [4]: 0.5 myosin fragment per S100A4 subunit
B4: M70, nonmuscle myosin IIA heavy chain fragment (residues A1868–G1938) (domain or fragment, UniProt P35579 1868-1938, looked up)
chain: ASTRLKQLKRQLEEAEEEAQRANASRRKLQRELEDATETADAMNREVSSLKNKLRRGDLPFVVPRRMARKG
notes: nonmuscle myosin IIA (NMIIA) heavy chain, residues A1868-G1938; also called u-M70; 13C,15N-M70; source: recombinant, unlabeled, 15N-labeled and 13C,15N-labeled

Binder: B5
binding result [5]: binds

Kd (S100A4 [6]): 10000 µM
Kd (S100A4 [7]): 1 µM
Kd (S100A4 [8]): < 0.01 µM
Kd (S100A4 [9]): 0.0004 µM
Kd (S100A4 [10]): < 0.5 µM
stoichiometry N (S100A4 [10]): 2.6 S100A4 monomers per M39
B6: M39 peptide of nonmuscle myosin IIA heavy chain (residues Q1897-A1935) (peptide)
peptide: QRELEDATETADAMNREVSSLKNKLRRGDLPFVVPRRMA
notes: nonmuscle myosin IIA heavy chain (NM-MHC IIA), residues Q1897-A1935; also called u-M39; WT M39; source: synthetic peptide; bought: GL Biochem Ltd (Shanghai, China), purity >95% by HPLC

Kd [11]: ~0.0001 µM
Kd [12]: ≤ 0.001 µM
Kd [13]: 0.00024 ± 7e-05 µM
Kd [14]: ~100 µM
Kd [15]: ~100 µM
Kd [16]: 0.0059 µM and 0.004 µM
stoichiometry N [16]: 0.55 ± 0.06 M39/S100A4
B7: M39, nonmuscle myosin IIA heavy chain peptide (residues Q1897–A1935) (peptide, UniProt P35579 1897-1935, looked up)
peptide: QRELEDATETADAMNREVSSLKNKLRRGDLPFVVPRRMA
notes: nonmuscle myosin IIA (NMIIA) heavy chain, residues Q1897-A1935; Unmodified (no fluorescent label); also called u-M39; source: synthetic peptide

B8: M111 fragment of nonmuscle myosin IIA heavy chain (residues Q1850-E1960) (domain or fragment, UniProt P35579 1850-1960, looked up)
chain: QVDDERRNAEQYKDQADKASTRLKQLKRQLEEAEEEAQRANASRRKLQRELEDATETADAMNREVSSLKNKLRRGDLPFVVPRRMARKGAGDGSDEEVDGKADGAEAKPAE
notes: nonmuscle myosin IIA heavy chain, residues Q1850-E1960; source: expressed and purified as described previously (Badyal et al., 2011)
stoichiometry N [3]: 2

stoichiometry N [4]: 0.5 myosin fragment per S100A4 subunit
B9: M111, nonmuscle myosin IIA heavy chain fragment (residues Q1850–E1960) (domain or fragment, UniProt P35579 1850-1960, looked up)
chain: QVDDERRNAEQYKDQADKASTRLKQLKRQLEEAEEEAQRANASRRKLQRELEDATETADAMNREVSSLKNKLRRGDLPFVVPRRMARKGAGDGSDEEVDGKADGAEAKPAE
notes: nonmuscle myosin IIA (NMIIA) heavy chain, residues Q1850-E1960

B10: S100A4 V77D (natural protein)
chain: MACPLEKALDVMVSTFHKYSGKEGDKFKLNKSELKELLTRELPSFLGKRTDEAAFQKLMSNLDSNRDNEVDFQEYCDFLSCIAMMCNEFFEGFPDKQPRKK
notes: as for B1
stoichiometry N [1]: 2

Source: paper PMC3343272, “Asymmetric Mode of Ca^2+-S100A4 Interaction with Nonmuscle Myosin IIA Generates Nanomolar Affinity Required for Filament Remodeling” (Structure(London, England:1993), 2012)
